# Data as given in article PMC6075865.
# Target: preformed binary t-SNARE complex of Syx 1a (amino acids 1-262) and SNAP25 (amino acids 1-206), O35526
# Assay: SDS-resistant SNARE complex formation (SDS-PAGE without boiling, Coomassie staining); t-SNAREs preformed 1 hr (syntaxin 1 3 uM, SNAP25 15 uM), peptide (50 uM) or none added for 30 min, then GST-SybII (3 uM); 25 C; 100 mM NaCl, 1 mM DTT, 1 mM EDTA, 0.5% Triton X-100, 20 mM Tris pH 7.4; time …
# Settings: other: SDS-resistant SNARE complex formation (SDS-PAGE without boiling, Coomassie staining)
# preformed binary t-SNARE complex of Syx 1a (amino acids 1-262) and SNAP25 (amino acids 1-206), O35526, sequence (O35526 whole entry, looked up, the tested form may be a part, one chain of several): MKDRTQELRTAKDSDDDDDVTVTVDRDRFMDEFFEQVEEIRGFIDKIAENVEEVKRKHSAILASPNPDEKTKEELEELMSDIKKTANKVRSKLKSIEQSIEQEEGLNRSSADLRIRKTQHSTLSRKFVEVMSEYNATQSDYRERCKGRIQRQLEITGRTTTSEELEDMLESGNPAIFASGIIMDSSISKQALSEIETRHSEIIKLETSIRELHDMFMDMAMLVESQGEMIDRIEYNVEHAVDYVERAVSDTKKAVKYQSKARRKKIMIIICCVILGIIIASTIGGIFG
Protein,"amount of assembled SNARE complexes (m10 with m11) after 240 min with 50 uM peptide, % of control","rate of SNARE complex assembly (m10 with m11) with 50 uM peptide, % of control"
"KVPYELGGQLPELKTSDPIEGEDEDELFMKEIAC [scrambled variant of the CpxII CTD peptide, in solution]",scr-peptide 88.8 ± 9.6,106.6 ± 16.7% of control
"IPAGCGDEEEEEEESILDTVLKYLPGPLQDMFKK [CpxII CTD peptide (amino acids 101-134), in solution]",CTD-peptide 92.3 ± 9.1,51.4 ± 3.8% of control
